Data on two molecules can be found in patent US20260250421A1.

The target in the test is His-tagged dog TROP2 protein (dog). Briefly: SPR Biacore 8K, Ab on Protein A chip.

Positions count from the first letter of the chain named.

B1: DS-1062 analog-LALA (antibody, V domains shown)
VH: QVQLVQSGAEVKKPGASVKVSCKASGYTFTTAGMQWVRQAPGQGLEWMGWINTHSGVPKYAEDFKGRVTISADTSTSTAYLQLSSLKSEDTAVYYCARSGFGSSYWYFDVWGQGTLVTVSS
VL: DIQMTQSPSSLSASVGDRVTITCKASQDVSTAVAWYQQKPGKAPKLLIYSASYRYTGVPSRFSGSGSGTDFTLTISSLQPEDFAVYYCQQHYITPLTFGQGTKLEIKR
Molecule B1 displayed a Kd of 27.2 nM, a koff of 0.000812 s⁻¹ and a kon of 29900 M⁻¹ s⁻¹.

B2: Sacituzumab analog (antibody, V domains shown)
VH: QVQLQQSGSELKKPGASVKVSCKASGYTFTNYGMNWVKQAPGQGLKWMGWINTYTGEPTYTDDFKGRFAFSLDTSVSTAYLQISSLKADDTAVYFCARGGFGSSYWYFDVWGQGSLVTVSS
VL: B1 VL with M4L, T20S, T31I, S60D, Q100A, L104V
B2 showed a Kd of 42 nM, a koff of 0.00858 s⁻¹ and a kon of 204000 M⁻¹ s⁻¹.
